Test results: patent US20220056131A1 (MacroGenics, published 2022)
Changes are numbered by the printed parent chain. Names may count otherwise.

Key:
[1] = biological target: soluble human CD3 (extracellular domain of human CD3) (human); experiment: capture ELISA, plate coated with 1 µg/ml shCD3, OD450
[2] = biological target: soluble human CD3 (extracellular domain of human CD3) (human); experiment: capture ELISA, plate coated with 1 µg/ml soluble human CD3, OD450
[3] = biological target: T1, soluble cynomolgus monkey CD3 (cynomolgus monkey); experiment: capture ELISA, plate coated with 1 µg/ml soluble cynomolgus monkey CD3, OD450
T1 chain: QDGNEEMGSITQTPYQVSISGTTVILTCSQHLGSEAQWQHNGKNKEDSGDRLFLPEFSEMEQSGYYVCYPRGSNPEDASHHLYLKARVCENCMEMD

[4] = biological target: T1, soluble cynomolgus monkey CD3; experiment: BIACORE SPR, capture with anti-EK antibodies, bivalent fit
[5] = biological target: soluble human CD3 (extracellular domain of human CD3) (human); experiment: capture ELISA, plate coated with 0.5 µg/ml shCD3, OD450
[6] = biological target: soluble human CD3 (extracellular domain of human CD3) (human); experiment: BIACORE SPR, capture with anti-EK antibodies, bivalent fit
[7] = biological target: T2, epidermal growth factor receptor (EGFR) on A498 kidney cancer cells or A431 epidermoid carcinoma cells (UniProt P00533 25-1210, limits assumed); experiment: flow cytometry, binding to A498 kidney cancer cells, MFI
T2 construct: whole, on cells

[8] = biological target: T1, soluble cynomolgus monkey CD3; experiment: bispecific binding ELISA with soluble cynomolgus CD3 and soluble human B7H3 (sheet title 'sCynCD3-shB7H3 Bispecific Binding Elisa'); format not described, OD450

soluble human CD3 (extracellular domain of human CD3) (human), sequence (P07766 23-126, chain 1 of 2): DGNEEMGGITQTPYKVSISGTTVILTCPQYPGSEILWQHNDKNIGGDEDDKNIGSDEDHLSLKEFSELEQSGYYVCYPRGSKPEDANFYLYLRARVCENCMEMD
soluble human CD3 (extracellular domain of human CD3) (human), sequence (P04234 22-105, chain 2 of 2, further chain): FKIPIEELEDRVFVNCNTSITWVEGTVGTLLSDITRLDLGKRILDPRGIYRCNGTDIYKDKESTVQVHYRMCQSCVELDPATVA

B1: chimeric variant of mAb2 antibody (ch-mAb2) (antibody, V domains shown)
VH: EVKLLESGGGLVQPKGSLKLSCAASGFTFNTYAMNWVRQAPGKGLEWVARIRSKYNNYATYYADSVKDRFTISRDDSQSILYLQMNNLKTEDTAMYYCVRHGNFGNSYVSWFAYWGQGTLVTVSA
VL: QAVVTQESALTTSPGETVTLTCRSSTGAVTTSNYANWVQEKPDHLFTGLIGGTNKRAPGVPARFSGSLIGDKAALTITGAQTEDEAIYFCALWYSNLWVFGGGTKLTVLG
notes: also called chimeric mAb2; mAb2 chimeric antibody
With B1 the EC50 (read off the curve) [1] was 0.03 µg/mL, the EC50 (read off the curve) [2] was 0.03 µg/mL and the “EC50 (read off the curve)” value [3] was about 0.03 µg/mL. The Kd [4] was 14.4 nM, the kon [4] was 160000 M⁻¹ s⁻¹ and the EC50 (read off the curve) [5] was 0.03 µg/mL. The Kd [6] was 14.7 nM and the kon [6] was 170000 M⁻¹ s⁻¹.

B2: h-mAb2VH-8 HC / ch-mAb2 LC (antibody, V domains shown)
VH: B1 VH with K3Q, L5V, K15G, K19R, Q78K, S79N, I80S, N87S, M95V, A125S
VL: B1 VL
notes: also called ch-mAb2 LC / h-mAb2VH-8 HC
For B2, the EC50 (read off the curve) [2] was 0.03 µg/mL and the “EC50 (read off the curve)” value [3] was about 0.03 µg/mL.

B3: antibody having an h-mAb2 VL-6 light chain and the heavy chain of the mAb2 chimeric antibody (antibody, V domains shown)
VH: B1 VH
VL: QAVVTQEPSLTVSPGGTVTLTCRSSTGAVTTSNYANWVQQKPGQAPRGLIGGTNKRAPWTPARFSGSLLGGKAALTITGAQAEDEADYYCALWYSNLWVFGGGTKLTVLG
notes: also called h-mAb2 VL-6 light chain antibody (Kabat F36V and T46G)
In the case of B3, the EC50 (read off the curve) [2] is reported as 0.03 µg/mL, the “EC50 (read off the curve)” value [3] is reported as about 0.03 µg/mL and the EC50 (read off the curve) [5] is reported as 0.04 µg/mL.

B4: antibody having an h-mAb2 VL-8 light chain and the heavy chain of the mAb2 chimeric antibody (antibody, V domains shown)
VH: B1 VH
VL: B3 VL with Q40E
Binder B4 has an EC50 (read off the curve) [1] of 0.03 µg/mL and an EC50 (read off the curve) [5] of 0.04 µg/mL.

B5: humanized mAb2 (h-mAb2) (antibody, V domains shown)
VH: B1 VH with K3Q, L5V, K15G, K19R, Q78K, S79N, I80S, N87S, M95V, A125S
VL: B3 VL
notes: also called humanized variant of mAb2
For B5, the EC50 (read off the curve) [2] was 0.03 µg/mL, the “EC50 (read off the curve)” value [3] was about 0.03 µg/mL and the Kd [4] was 24.1 nM. The kon [4] was 170000 M⁻¹ s⁻¹, the Kd [6] was 20 nM and the kon [6] was 190000 M⁻¹ s⁻¹.

B6: 4420 x huXR32 (bispecific antibody)
4420VL-hXR32VH-E coil: DVVMTQTPFSLPVSLGDQASISCRSSQSLVHSNGNTYLRWYLQKPGQSPKVLIYKVSNRFSGVPDRFSGSGSGTDFTLKISRVEAEDLGVYFCSQSTHVPWTFGGGTKLEIKGGGSGGGGEVQLVESGGGLVQPGGSLRLSCAASGFTFNTYAMNWVRQAPGKGLEWVARIRSKYNNYATYYADSVKDRFTISRDDSKNSLYLQMNSLKTEDTAVYYCVRHGNFGNSYVSWFAYWGQGTLVTVSSGGCGGGEVAALEKEVAALEKEVAALEKEVAALEK
hXR32VL-4420VH-K coil: QAVVTQEPSLTVSPGGTVTLTCRSSTGAVTTSNYANWVQQKPGQAPRGLIGGTNKRAPWTPARFSGSLLGGKAALTITGAQAEDEADYYCALWYSNLWVFGGGTKLTVLGGGGSGGGGEVKLDETGGGLVQPGRPMKLSCVASGFTFSDYWMNWVRQSPEKGLEWVAQIRNKPYNYETYYSDSVKGRFTISRDDSKSSVYLQMNNLRVEDMGIYYCTGSYYGMDYWGQGTSVTVSSGGCGGGKVAALKEKVAALKEKVAALKEKVAALKE
B6: no binding [7].

B7: B7-H3-2-h-mAb2 DART diabody (bispecific antibody)
chain 1: DIQLTQSPSFLSASVGDRVTITCKASQNVDTNVAWYQQKPGKAPKALIYSASYRYSGVPSRFSGSGSGTDFTLTISSLQPEDFATYYCQQYNNYPFTFGQGTKLEIKGGGGSGGGGEVQLVESGGGLVQPGGSLRLSCAASGFTFNTYAMNWVRQAPGKGLEWVARIRSKYNNYATYYADSVKDRFTISRDDSKNSLYLQMNSLKTEDTAVYYCVRHGNFGNSYVSWFAYWGQGTLVTVSSGGCGGGEVAALEKEVAALEKEVAALEKEVAALEK
chain 2: QAVVTQEPSLTVSPGGTVTLTCRSSTGAVTTSNYANWVQQKPGQAPRGLIGGTNKRAPWTPARFSGSLLGGKAALTITGAQAEDEADYYCALWYSNLWVFGGGTKLTVLGGGGSGGGGEVQLVESGGGLVQPGGSLRLSCAASGFTFSSFGMHWVRQAPGKGLEWVAYISSDSSAIYYADTVKGRFTISRDNAKNSLYLQMNSLRDEDTAVYYCGRGRENIYYGSRLDYWGQGTTVTVSSGGCGGGKVAALKEKVAALKEKVAALKEKVAALKE
notes: Two-chain diabody, hBRCA84D (anti-B7-H3) x h-mAb2
In the case of B7, the “EC50 (read off the curve)” value [8] is reported as about 0.03 µg/mL.
